B1: His-SND1 (16-339), SN1/2 domains, wild type (other)
chain: VPTVQRGIIKMVLSGCAIIVRGQPRGGPPPERQINLSNIRAGNLARRAAATQPDAKDTPDEPWAFPAREFLRKKLIGKEVCFTIENKTPQGREYGMIYLGKDTNGENIAESLVAEGLATRREGMRANNPEQNRLSECEEQAKAAKKGMWSEGNGSHTIRDLKYTIENPRHFVDSHHQKPVNAIIEHVRDGSVVRALLLPDYYLVTVMLSGIKCPTFRREADGSETPEPFAAEAKFFTESRLLQRDVQIILESCHNQNILGTILHPNGNITELLLKEGFARCVDWSIAVYTRGAEKLRAAERFAKERRLRIWRDYVAPTANLDQK
notes: also called His6-SND1 harboring the SN1/2 domains; not shown: N-terminal His tag (His6, His8 or His) with TEV site, pQlink vector
B2: GST-MTDH (364-582), wild type (other)
chain: YQWDVSRNQPYIDDEWSGLNGLSSADPNSDWNAPAEEWGNWVDEERASLLKSQEPIPDDQKVSDDDKEKGEGALPTGKSKKKKKKKKKQGEDNSTAQDTEELEKEIREDLPVNTSKTRPKQEKAFSLKTISTSDPAEVLVKNSQPIKTLPPATSTEPSVILSKSDSDKSSSQVPPILQETDKSKSNTKQNSVPPSQTKSETSWESPKQIKKKKKARRET
notes: not shown: N-terminal GST tag with TEV site, pQlink vector

target: B2; experiment: pull-down by GST-MTDH (364-582) on glutathione resin, SDS-PAGE, Coomassie blue; normalised percentage of binding, mean±SEM of three experiments
Description: (§1) The proteins bound to GS4B were examined on SDS-PAGE and visualized by Coomassie blue staining. […] The bound proteins were examined as in (FIG. 22A). For both (FIG. 22A) and (FIG. 22B), experiments were repeated three times; representative results are shown. The normalized percentage of binding was averaged from three experiments; mean±SEM was shown below the data. (FIG. 22C) HEK293T cells were transfected with human HA-SND1, WT Myc-MTDH or Myc-MTDH with indicated single point mutation. Lysates were immunoprecipitated with anti-Myc antibody and immunoblotted with the indicated antibodies. (FIG. 22D) HEK293T cells were transfected with human Myc-MTDH, WT HA-SND1 or mutant HA-SND1 with indicated single point mutations or deletions. Lysates were immunoprecipitated with anti-Myc and immunoblotted with the indicated antibodies.
(§2) GST-Mediated Pull-Down Assay: ˜20 μg of GST-MTDH (different truncation forms and site mutants) was bound to 10 μl of glutathione resin via GST tag. The resin was washed with 200 μl assay buffer (25 mM Tris, PH8.0, 150 mM NaCl, 3 mM DTT) three times to remove the excess unbound protein. […] The mixture was washed with 200 μl assay buffer twice before examined by SDS-PAGE, and visualized by Coomassie blue staining. The experiments were repeated 3 times and the ratio of SND1 associated with GST-MTDH was analyzed by ImageJ.

Binder | % Maximum binding
His-SND1(16-339) P43G/R324E (protein) single chain: VPTVQRGIIKMVLSGCAIIVRGQPRGGGPPERQINLSNIRAGNLARRAAATQPDAKDTPDEPWAFPAREFLRKKLIGKEVCFTIENKTPQGREYGMIYLGKDTNGENIAESLVAEGLATRREGMRANNPEQNRLSECEEQAKAAKKGMWSEGNGSHTIRDLKYTIENPRHFVDSHHQKPVNAIIEHVRDGSVVRALLLPDYYLVTVMLSGIKCPTFRREADGSETPEPFAAEAKFFTESRLLQRDVQIILESCHNQNILGTILHPNGNITELLLKEGFARCVDWSIAVYTRGAEKLRAAERFAKERRLEIWRDYVAPTANLDQK | 9%
B1 | 100%
His-SND1(16-339) P43G (other, mutant named only on the sheet) single chain: VPTVQRGIIKMVLSGCAIIVRGQPRGGGPPERQINLSNIRAGNLARRAAATQPDAKDTPDEPWAFPAREFLRKKLIGKEVCFTIENKTPQGREYGMIYLGKDTNGENIAESLVAEGLATRREGMRANNPEQNRLSECEEQAKAAKKGMWSEGNGSHTIRDLKYTIENPRHFVDSHHQKPVNAIIEHVRDGSVVRALLLPDYYLVTVMLSGIKCPTFRREADGSETPEPFAAEAKFFTESRLLQRDVQIILESCHNQNILGTILHPNGNITELLLKEGFARCVDWSIAVYTRGAEKLRAAERFAKERRLRIWRDYVAPTANLDQK | 67%
SND1 (16-339) F250A (other, not shown: N-terminal His tag (His6, His8 or His) with TEV site, pQlink vector) VPTVQRGIIKMVLSGCAIIVRGQPRGGPPPERQINLSNIRAGNLARRAAATQPDAKDTPDEPWAFPAREFLRKKLIGKEVCFTIENKTPQGREYGMIYLGKDTNGENIAESLVAEGLATRREGMRANNPEQNRLSECEEQAKAAKKGMWSEGNGSHTIRDLKYTIENPRHFVDSHHQKPVNAIIEHVRDGSVVRALLLPDYYLVTVMLSGIKCPTFRREADGSETPEPFAAEAKAFTESRLLQRDVQIILESCHNQNILGTILHPNGNITELLLKEGFARCVDWSIAVYTRGAEKLRAAERFAKERRLRIWRDYVAPTANLDQK | 9%
SND1 (16-339) R255E (other, not shown: N-terminal His tag (His6, His8 or His) with TEV site, pQlink vector) VPTVQRGIIKMVLSGCAIIVRGQPRGGPPPERQINLSNIRAGNLARRAAATQPDAKDTPDEPWAFPAREFLRKKLIGKEVCFTIENKTPQGREYGMIYLGKDTNGENIAESLVAEGLATRREGMRANNPEQNRLSECEEQAKAAKKGMWSEGNGSHTIRDLKYTIENPRHFVDSHHQKPVNAIIEHVRDGSVVRALLLPDYYLVTVMLSGIKCPTFRREADGSETPEPFAAEAKFFTESELLQRDVQIILESCHNQNILGTILHPNGNITELLLKEGFARCVDWSIAVYTRGAEKLRAAERFAKERRLRIWRDYVAPTANLDQK | 2%
SND1 (16-339) R316E (negative control mutation outside the interface) (other, not shown: N-terminal His tag (His6, His8 or His) with TEV site, pQlink vector) VPTVQRGIIKMVLSGCAIIVRGQPRGGPPPERQINLSNIRAGNLARRAAATQPDAKDTPDEPWAFPAREFLRKKLIGKEVCFTIENKTPQGREYGMIYLGKDTNGENIAESLVAEGLATRREGMRANNPEQNRLSECEEQAKAAKKGMWSEGNGSHTIRDLKYTIENPRHFVDSHHQKPVNAIIEHVRDGSVVRALLLPDYYLVTVMLSGIKCPTFRREADGSETPEPFAAEAKFFTESRLLQRDVQIILESCHNQNILGTILHPNGNITELLLKEGFARCVDWSIAVYTRGAEKLRAAEEFAKERRLRIWRDYVAPTANLDQK | 88%
SND1 (16-339) R324A (other, not shown: N-terminal His tag (His6, His8 or His) with TEV site, pQlink vector) VPTVQRGIIKMVLSGCAIIVRGQPRGGPPPERQINLSNIRAGNLARRAAATQPDAKDTPDEPWAFPAREFLRKKLIGKEVCFTIENKTPQGREYGMIYLGKDTNGENIAESLVAEGLATRREGMRANNPEQNRLSECEEQAKAAKKGMWSEGNGSHTIRDLKYTIENPRHFVDSHHQKPVNAIIEHVRDGSVVRALLLPDYYLVTVMLSGIKCPTFRREADGSETPEPFAAEAKFFTESRLLQRDVQIILESCHNQNILGTILHPNGNITELLLKEGFARCVDWSIAVYTRGAEKLRAAERFAKERRLAIWRDYVAPTANLDQK | 70%
SND1 (16-339) R324E (other, not shown: N-terminal His tag (His6, His8 or His) with TEV site, pQlink vector) VPTVQRGIIKMVLSGCAIIVRGQPRGGPPPERQINLSNIRAGNLARRAAATQPDAKDTPDEPWAFPAREFLRKKLIGKEVCFTIENKTPQGREYGMIYLGKDTNGENIAESLVAEGLATRREGMRANNPEQNRLSECEEQAKAAKKGMWSEGNGSHTIRDLKYTIENPRHFVDSHHQKPVNAIIEHVRDGSVVRALLLPDYYLVTVMLSGIKCPTFRREADGSETPEPFAAEAKFFTESRLLQRDVQIILESCHNQNILGTILHPNGNITELLLKEGFARCVDWSIAVYTRGAEKLRAAERFAKERRLEIWRDYVAPTANLDQK | 26%
SND1 (16-339) Δ39-43 (deletion in the SN1 Lβ2-β3 loop) (other, also called 439-43; not shown: N-terminal His tag (His6, His8 or His) with TEV site, pQlink vector) VPTVQRGIIKMVLSGCAIIVRGQPPERQINLSNIRAGNLARRAAATQPDAKDTPDEPWAFPAREFLRKKLIGKEVCFTIENKTPQGREYGMIYLGKDTNGENIAESLVAEGLATRREGMRANNPEQNRLSECEEQAKAAKKGMWSEGNGSHTIRDLKYTIENPRHFVDSHHQKPVNAIIEHVRDGSVVRALLLPDYYLVTVMLSGIKCPTFRREADGSETPEPFAAEAKFFTESRLLQRDVQIILESCHNQNILGTILHPNGNITELLLKEGFARCVDWSIAVYTRGAEKLRAAERFAKERRLRIWRDYVAPTANLDQK | 2%

target: B1; experiment: GST pull-down on glutathione resin, SDS-PAGE, Coomassie blue; normalised percentage of binding, mean±SEM of three experiments
Description: as §1, §2
Identification of MTDH and SND1 mutants deficient in binding: To gain insight into how the interface characterized above contributes to MTDH-SND1 interaction, structure-guided mutagenesis studies were performed.

Binder | % Maximum binding
B2 | 100%
GST-MTDH (364-582) D389R (other, not shown: N-terminal GST tag with TEV site, pQlink vector) YQWDVSRNQPYIDDEWSGLNGLSSARPNSDWNAPAEEWGNWVDEERASLLKSQEPIPDDQKVSDDDKEKGEGALPTGKSKKKKKKKKKQGEDNSTAQDTEELEKEIREDLPVNTSKTRPKQEKAFSLKTISTSDPAEVLVKNSQPIKTLPPATSTEPSVILSKSDSDKSSSQVPPILQETDKSKSNTKQNSVPPSQTKSETSWESPKQIKKKKKARRET | 60%
GST-MTDH (364-582) E400A (other, not shown: N-terminal GST tag with TEV site, pQlink vector) YQWDVSRNQPYIDDEWSGLNGLSSADPNSDWNAPAEAWGNWVDEERASLLKSQEPIPDDQKVSDDDKEKGEGALPTGKSKKKKKKKKKQGEDNSTAQDTEELEKEIREDLPVNTSKTRPKQEKAFSLKTISTSDPAEVLVKNSQPIKTLPPATSTEPSVILSKSDSDKSSSQVPPILQETDKSKSNTKQNSVPPSQTKSETSWESPKQIKKKKKARRET | 80%
GST-MTDH (364-582) E400R (other, not shown: N-terminal GST tag with TEV site, pQlink vector) YQWDVSRNQPYIDDEWSGLNGLSSADPNSDWNAPAERWGNWVDEERASLLKSQEPIPDDQKVSDDDKEKGEGALPTGKSKKKKKKKKKQGEDNSTAQDTEELEKEIREDLPVNTSKTRPKQEKAFSLKTISTSDPAEVLVKNSQPIKTLPPATSTEPSVILSKSDSDKSSSQVPPILQETDKSKSNTKQNSVPPSQTKSETSWESPKQIKKKKKARRET | 70%
GST-MTDH (364-582) N395A (other, not shown: N-terminal GST tag with TEV site, pQlink vector) YQWDVSRNQPYIDDEWSGLNGLSSADPNSDWAAPAEEWGNWVDEERASLLKSQEPIPDDQKVSDDDKEKGEGALPTGKSKKKKKKKKKQGEDNSTAQDTEELEKEIREDLPVNTSKTRPKQEKAFSLKTISTSDPAEVLVKNSQPIKTLPPATSTEPSVILSKSDSDKSSSQVPPILQETDKSKSNTKQNSVPPSQTKSETSWESPKQIKKKKKARRET | 84%
